According to article PMC12876990, “Targeting secreted PLA2 interactions with EGFR and vimentin to arrest prostate tumour growth” (Cell Death & Disease, 2025):
Square brackets hold non-standard residues; d marks the D form. 2Nal = N[C@@H](Cc1ccc2ccccc2c1)C(=O)O

Molecular target: T1, vimentin coil 2 (purified fragment)
T1 construct: vimentin, coil 2 fragment, purified; PDB 3TRT was used only for docking; also called second coil of vimentin; source: purified
Test: ELISA; competition enzyme immunoassay: vimentin coil 2 coated on the plate (15 µg/mL); hGIIA 100 ng/mL in PBS with 0.1% BSA mixed with c2 0.1-100 µM in DMSO, 37 °C, 2 h; detected with 4A1-alkaline phosphatase
Conditions: both partners purified

B1: c2 (cyclo-((2-Nal)-Leu-Ser-(2-Nal)-Arg)) (peptide)
chain: cyclo([2Nal]LS[2Nal]R)
SMILES: CC(C)C[C@@H]1NC(=O)[C@H](Cc2ccc3ccccc3c2)NC(=O)[C@H](CCCNC(=N)N)NC(=O)[C@H](Cc2ccc3ccccc3c2)NC(=O)[C@H](CO)NC1=O
Q: How did the IC50 turn out when B1 was run?
A: 56.5 µM
